The values that follow come from US20160243226A1.

One assay concerns the target CD20 (human) (UniProt P11836). Kind of assay: cell-based or functional assay.
The next assay concerns the target CD74 (human) (UniProt P04233). Kind of assay: cell-based or functional assay.

Bounds are passed on as bounds.

Chain of CD20 (human) (P11836 whole entry): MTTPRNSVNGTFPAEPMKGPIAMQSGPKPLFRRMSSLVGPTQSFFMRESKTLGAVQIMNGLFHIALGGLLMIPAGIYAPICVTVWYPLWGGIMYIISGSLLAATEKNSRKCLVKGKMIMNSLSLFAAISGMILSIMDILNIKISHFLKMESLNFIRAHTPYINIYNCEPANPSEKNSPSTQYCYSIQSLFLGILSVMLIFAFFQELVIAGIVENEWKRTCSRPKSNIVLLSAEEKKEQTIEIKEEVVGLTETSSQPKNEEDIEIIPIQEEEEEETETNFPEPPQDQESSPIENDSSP
Chain of CD74 (human) (P04233 whole entry): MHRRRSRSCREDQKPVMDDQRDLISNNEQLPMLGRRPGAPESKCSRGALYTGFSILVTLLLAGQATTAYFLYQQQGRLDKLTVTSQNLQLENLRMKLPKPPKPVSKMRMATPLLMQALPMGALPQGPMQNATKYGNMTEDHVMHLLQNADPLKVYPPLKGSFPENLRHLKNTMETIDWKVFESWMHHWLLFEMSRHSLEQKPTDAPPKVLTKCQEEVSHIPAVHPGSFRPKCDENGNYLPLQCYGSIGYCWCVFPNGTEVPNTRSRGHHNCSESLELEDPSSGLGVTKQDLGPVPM

For the substance Hex-hA20 (antibody), in the assay with CD20 (human), the EC50 (nM), MTS assay, Daudi turned out to be 5.8 nM; the EC50 (nM), MTS assay, Granta-519 amounted to 0.2 nM; the EC50 (nM), MTS assay, Mino stood at 3.4 nM; the EC50 (nM), MTS assay, Raji was determined as 8 nM.

In the assay with CD20 (human), 20-Rap returned an EC50, in vitro cytotoxicity, Daudi and Ramos of 0.1 nM; an EC50, in vitro cytotoxicity, Jeko-1 of 0.02 nM.

As to 74-(74)-(74) (antibody), the EC50 (nM), MTS assay, JeKo-1 in the assay with CD74 (human) was over 100 nM.
